From article PMC4132731, “Crystal structure of RNase H3–substrate complex reveals parallel evolution of RNA/DNA hybrid recognition”

Biological target: T1, Ta-RNase H3 D78N (Thermovibrio ammonificans, UniProt E8T217 1-270, D78N)
T1 sequence: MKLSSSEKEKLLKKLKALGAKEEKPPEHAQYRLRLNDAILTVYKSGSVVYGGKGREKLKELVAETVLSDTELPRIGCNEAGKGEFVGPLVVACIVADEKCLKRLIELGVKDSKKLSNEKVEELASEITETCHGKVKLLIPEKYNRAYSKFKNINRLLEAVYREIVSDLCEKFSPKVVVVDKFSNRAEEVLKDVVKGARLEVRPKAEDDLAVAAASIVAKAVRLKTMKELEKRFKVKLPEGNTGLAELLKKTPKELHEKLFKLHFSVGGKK
Experiment: X-ray crystallography (2.1 A); Mg2+ (metal ion A only); sulfate; EMSA: 10% native TAE polyacrylamide gel, binding buffer not given in the material; crystals: 0.2 M ammonium sulfate, 0.1 M BisTris pH 5.5, 25% PEG 3350, 10 mM spermine tetrahydrochloride, protein:substrate 1:1.2
Details: protein: recombinant; tags: N-terminal His-SUMO tag removed with SENP; extra N-terminal Ser0 before Met1 (cloning artifact); blunt

B1: 19-bp RNA/DNA hybrid (DNA:RNA)
RNA: GAGUGCGACACCUGAUUCC
DNA: GGAATCAGGTGTCGCACTC
B1: binds.
